Target: factor X (FX), P00742
Sequence (P00742 whole entry, looked up): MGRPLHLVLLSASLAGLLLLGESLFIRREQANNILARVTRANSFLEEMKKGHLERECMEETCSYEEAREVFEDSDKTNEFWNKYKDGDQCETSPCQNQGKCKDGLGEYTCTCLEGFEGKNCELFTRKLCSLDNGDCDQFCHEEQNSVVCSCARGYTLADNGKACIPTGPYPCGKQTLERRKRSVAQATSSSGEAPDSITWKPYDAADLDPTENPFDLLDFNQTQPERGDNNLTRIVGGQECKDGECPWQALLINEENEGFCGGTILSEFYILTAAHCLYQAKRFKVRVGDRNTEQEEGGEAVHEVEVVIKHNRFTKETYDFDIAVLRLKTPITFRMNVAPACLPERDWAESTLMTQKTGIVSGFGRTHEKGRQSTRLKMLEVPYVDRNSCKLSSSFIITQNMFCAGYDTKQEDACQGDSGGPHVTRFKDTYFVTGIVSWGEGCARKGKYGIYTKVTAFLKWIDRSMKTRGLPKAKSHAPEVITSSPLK

Protein | aPTT in FIX-depleted plasma: pdFIXa equivalent activity given for 0.5 µg/mL of FIXa protein (µg/mL pdFIXa activity)
FIXa-Y94F/K98T/Y177F (protein) YNSGKLEEFVQGNLERECMEEKCSFEEAREVFENTERTTEFWKQYVDGDQCESNPCLNGGSCKDDINSYECWCPFGFEGKNCELDVTCNIKNGRCEQFCKNSADNKVVCSCTEGYRLAENQKSCEPAVPFPCGRVSVSQTSKLTRAEAVFPDVDYVNSTEAETILDNITQSTQSFNDFTRVVGGEDAKPGQFPWQVVLNGKVDAFCGGSIVNEKWIVTAAHCVETGVKITVVAGEHNIEETEHTEQKRNVIRIIPHHNFNAAINTYNHDIALLELDEPLVLNSYVTPICIADKEYTNIFLKFGSGYVSGWGRVFHKGRSALVLQYLRVPLVDRATCLRSTKFTIFNNMFCAGFHEGGRDSCQGDSGGPHVTEVEGTSFLTGIISWGEECAMKGKYGIYTKVSRYVNWIKEKTKLT | 1
FIXa-Y94F/K98T/Y177F/I213V/E219G (protein) YNSGKLEEFVQGNLERECMEEKCSFEEAREVFENTERTTEFWKQYVDGDQCESNPCLNGGSCKDDINSYECWCPFGFEGKNCELDVTCNIKNGRCEQFCKNSADNKVVCSCTEGYRLAENQKSCEPAVPFPCGRVSVSQTSKLTRAEAVFPDVDYVNSTEAETILDNITQSTQSFNDFTRVVGGEDAKPGQFPWQVVLNGKVDAFCGGSIVNEKWIVTAAHCVETGVKITVVAGEHNIEETEHTEQKRNVIRIIPHHNFNAAINTYNHDIALLELDEPLVLNSYVTPICIADKEYTNIFLKFGSGYVSGWGRVFHKGRSALVLQYLRVPLVDRATCLRSTKFTIFNNMFCAGFHEGGRDSCQGDSGGPHVTEVEGTSFLTGIVSWGEGCAMKGKYGIYTKVSRYVNWIKEKTKLT | 14.4

Source: patent US20080214462
